{
  "source": "paper PMC12744750",
  "about": "(Plant Communications, 2025)",
  "key": {"[1]": {"target": "T1, ETR1^306-738 (Arabidopsis thaliana, UniProt P49333)", "T1 construct": "made in house", "T1 sequence (P49333 306-738)": "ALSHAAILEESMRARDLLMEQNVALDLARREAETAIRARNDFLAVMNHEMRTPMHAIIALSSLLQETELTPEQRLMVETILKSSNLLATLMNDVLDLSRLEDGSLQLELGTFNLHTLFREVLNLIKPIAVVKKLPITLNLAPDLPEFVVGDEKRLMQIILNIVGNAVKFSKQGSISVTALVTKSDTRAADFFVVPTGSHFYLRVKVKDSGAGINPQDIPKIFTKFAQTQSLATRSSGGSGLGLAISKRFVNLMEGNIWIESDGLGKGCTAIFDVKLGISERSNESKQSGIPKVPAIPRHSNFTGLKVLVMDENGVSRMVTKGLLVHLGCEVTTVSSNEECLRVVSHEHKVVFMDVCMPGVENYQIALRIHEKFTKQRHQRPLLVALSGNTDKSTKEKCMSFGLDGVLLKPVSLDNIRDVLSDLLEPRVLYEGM", "assay": "Microscale thermophoresis, PLS binding to ETR1 lacking the transmembrane domain", "settings": "MST, as full-length; ETR1^306-738 lacking N-terminal transmembrane domain; listed as PLS", "description": "Fluorescently labeled ETR1 truncation mutants ([Milić et al., 2018]) were added to a dilution series of synthetic PLS in 50 mM HEPES, 150 mM NaCl, and 0.015% (w/v) FosCholine 16 (pH 7.6) or 50 mM Tris, 300 mM NaCl, and 0.015% (w/v) FosCholine 16 (pH 7.6). Dissociation constants were calculated using GraphPad Prism 5.\nFull-length ETR1 and its truncation mutants were purified and labeled as described previously ([Milić et al., 2018]). Synthetic PLS (94 μM) was diluted serially in 50 mM Tris and 300 mM NaCl (pH 7.6). Fluorescently labeled receptor was added at a final concentration of 50 nM. Thermophoretic behavior was measured in premium capillaries at 50% LED and 50% microscale thermophoresis power. In case of a binding event, data were fitted using GraphPad Prism 5."}, "[2]": {"system": "ETR1", "assay": "Yeast 2-hybrid PLS-ETR1", "assay_type": "binding, Arabidopsis", "settings": "preliminary yeast 2-hybrid, YRG-2 strain", "description": "The GAL4 2-hybrid phagemid vector system was used to detect protein–protein interactions in vivo in yeast, using the reporter genes β-galactosidase (lacZ) and histidine (HIS3) in the YRG-2 yeast strain, essentially as described previously ([Zhong et al., 2008]). DNA sequences encoding the target (ETR1) and bait (PLS) were inserted into the pAD-GAL4-2.1 A and pBD-GAL4 Cam phagemid vectors, respectively, and expressed as hybrid proteins. The hybrid proteins were then assayed for protein–protein interaction.\nDNA sequences encoding the target and bait proteins were prepared by PCR amplification using primers designed specifically for the target (ETR1) and bait (PLS). Each set of primers contained specific endonuclease recognition sites on the ends corresponding to the restriction sites in the MCS of the pAD-GAL4-2.1 A and pBD-GAL4 Cam phagemid vectors. The DNA constructs for the target (ETR1) and bait (PLS) with specific restriction sites on the ends were then transformed into the TOPO 2.1 vector, and the sequence of the amplified DNA was confirmed by sequencing with M13 forward (CTG GCC GTC GTT TTA C) and M13 reverse (CAG GAA ACA GCT ATG AC) primers. […] The DNA sequences encoding the target (ETR1) and bait (PLS) were then ligated into the same reading frame as the GAL4 AD of the pAD-GAL4-2.1 phagemid vector and the GAL4 BD of the pBD-GAL4 Cam phagemid vector. […]"}, "[3]": {"assay": "Anaerobic Cu(I) titration monitored by UV-vis and fluorescence spectra", "assay_type": "binding", "settings": "19.8 μM synthetic PLS, titration with CuCl; features at 242 nm and 306 nm", "description": "Freeze-dried synthetic PLS peptide (Cambridge Research Biochemicals) was dissolved in DMSO. An aliquot was added to aqueous buffer (10 mM HEPES [pH 7], 20 mM NaCl, 80 mM KCl), and absorbance was recorded at 280 nm. PLS concentration was estimated from the absorbance and the ProtParam estimated extinction coefficient of 2980 M^−1 cm^−1. Concurrently, a sample was submitted for quantitative amino acid analysis (Abingdon Health Laboratory Services). From this analysis, a conversion factor of 2.27 was generated, which was applied to the concentrations determined by A280 nm.\nAll Cu(I) titration experiments were carried out in an anaerobic chamber (Belle Technology) using metal-free CHELEX-treated, degassed buffers. […] The reductant NH2OH was included at a final concentration of 1 mM to maintain Cu(I) in its reduced state. […] After each addition, solutions were thoroughly mixed and absorbance spectra recorded using a Lambda 35 UV/Vis spectrophotometer (PerkinElmer). Titration isotherm data were fitted using simulated affinity curves with DynaFit ([Kuzmič, 2009])."}, "[4]": {"assay": "Solubility during Cu(I) titration", "assay_type": "physicochemical", "settings": "strictly anaerobic conditions", "description": "All Cu(I) titration experiments were carried out in an anaerobic chamber (Belle Technology) using metal-free CHELEX-treated, degassed buffers. For titration experiments with Cu(I), aqueous CuSO4 stock was quantified in advance by ICP–MS and diluted to working concentrations. The reductant NH2OH was included at a final concentration of 1 mM to maintain Cu(I) in its reduced state. Proteins were diluted in buffer to the final concentration specified in each titration in air-tight quartz cuvettes (Helma), and after addition of probe to the concentration specified, titrated with CuSO4. After each addition, solutions were thoroughly mixed and absorbance spectra recorded using a Lambda 35 UV/Vis spectrophotometer (PerkinElmer). Titration isotherm data were fitted using simulated affinity curves with DynaFit ([Kuzmič, 2009])."}},
  "data": [
    {"substance": "PLS(FL): full-length 36-amino-acid PLS peptide from Arabidopsis (MKPRLCFNFRRRSISPCYISISYLLVAKLFKLFKIH)", "values": [
      {"measurement": "binding (dissociation constant)", "setting": "[1]", "result": "no binding was detected"},
      {"measurement": "interaction with ETR1", "setting": "[2]", "result": "interacts with ETR1"},
      {"measurement": "Cu(I)-dependent change of UV-vis and fluorescence spectra", "setting": "[3]", "result": "consistent with complex formation"},
      {"measurement": "solubility", "setting": "[4]", "result": "problems with PLS solubility"}
    ]}
  ]
}
